From patent US20180009892A1 (EUREKA THERAPEUTICS, published 2018)

Key:
[1] = target: T1, ROR1 extracellular domain Fc-fusion, dimer (human, UniProt Q01973 30-406); test: SPR, immobilised ROR1 dimer, antibody injected, 1:1 model
T1 construct: also called ROR1 dimer; hROR1 dimeric ECD-Fc fusion protein; not shown: Fc part
Experimental: (§1) The binding affinities of ROR1 extracellular domain dimer and monomer for anti-ROR1 antibodies were determined by surface plasmon resonance (SPR). ROR1 extracellular domain Fc-fusion, “dimer,” and ROR1 extracellular domain Fc fusion:Fc heterodimer, “monomer,” are the dimer and monomeric forms of ROR1 used for affinity analysis, respectively. Briefly, ROR1 dimer and monomer were directly immobilized to a CM4 chip using an amine coupling kit and 100 mM ethylenediamine in 100 mM Sodium Borate buffer, pH 8.0 as the blocking reagent. Approximately 100-150 RU of ROR1 dimer and monomer were immobilized on separate flow cells and an un-derivatized flow cell was used as a reference control. […] Dissociation was followed for 180 seconds. The association constant, dissociation constant, and affinity of each anti-ROR1 antibody was calculated using the Biacore T200 Evaluation Software 1:1 binding model.
(§2) Sensorgrams were normalized to 100 RU using the “binding stability point” at the end of the association phase but before the dissociation phase.

[2] = target: T1, ROR1 extracellular domain Fc-fusion, …; test: SPR, immobilised ROR1 dimer, antibody injected, 1:1 model; apparent affinity
Experimental: as §1, §2

[3] = target: T2, ROR1 extracellular domain Fc fusion:Fc heterodimer, monomer (human); test: SPR, immobilised ROR1 monomer, antibody injected, 1:1 model
T2 construct: Heterodimer of one ROR1 ECD-Fc chain and one Fc chain; also called ROR1 monomer; hROR1 monomeric ECD-Fc fusion protein; not shown: Fc part; Fc alone
T2 sequence (Q01973 30-406, one chain of several): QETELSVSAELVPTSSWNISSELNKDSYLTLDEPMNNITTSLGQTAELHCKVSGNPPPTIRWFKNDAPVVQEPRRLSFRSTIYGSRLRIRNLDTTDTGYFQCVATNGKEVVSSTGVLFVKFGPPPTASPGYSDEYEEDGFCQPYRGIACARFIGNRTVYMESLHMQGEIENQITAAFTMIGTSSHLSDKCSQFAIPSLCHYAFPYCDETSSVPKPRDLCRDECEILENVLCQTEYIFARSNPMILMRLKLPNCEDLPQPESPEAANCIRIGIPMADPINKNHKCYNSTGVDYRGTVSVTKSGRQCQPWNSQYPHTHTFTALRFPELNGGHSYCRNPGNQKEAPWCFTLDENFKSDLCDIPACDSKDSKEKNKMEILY
Experimental: as §1, §2

[4] = target: T3, human ROR1 extracellular domain (ECD) protein (human, UniProt Q01973 30-406); test: competitive phage ELISA: soluble ROR1 against ROR1-coated plate
T3 construct: also called hROR1-ECD; human ROR1-ECD
T3 sequence (Q01973 30-406 limits assumed): as the sequence (Q01973 30-406, one chain of several) above
Experimental: Purified phage antibodies were first diluted serially in PBST buffer, and tested for binding to a ROR1-coated plate. The dilution that gave 50-80% saturating signal was used in the solution binding assay in which phage were first incubated with increasing concentration of ROR1 for one to two hours, and then transferred to a ROR1-coated plate for 10-15 minutes to capture the unbound phage.

human ROR2-ECD = target: T4, human ROR2-ECD (human, UniProt Q01974 34-403); test: phage antibody protein ELISA
T4 construct: extracellular domain; also called hROR2
T4 sequence (Q01974 34-403): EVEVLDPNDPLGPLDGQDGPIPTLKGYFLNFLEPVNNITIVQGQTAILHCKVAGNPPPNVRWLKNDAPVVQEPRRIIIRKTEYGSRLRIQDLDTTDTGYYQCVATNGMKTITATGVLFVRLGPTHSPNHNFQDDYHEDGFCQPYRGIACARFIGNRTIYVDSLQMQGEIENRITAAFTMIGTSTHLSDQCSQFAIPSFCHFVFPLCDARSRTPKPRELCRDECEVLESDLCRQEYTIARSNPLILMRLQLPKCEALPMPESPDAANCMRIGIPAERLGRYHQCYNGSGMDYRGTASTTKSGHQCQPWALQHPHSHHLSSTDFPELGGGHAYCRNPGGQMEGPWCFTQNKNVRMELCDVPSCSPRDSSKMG
Experimental: (§3) Binding specificities of the 45 phage antibodies were determined by protein ELISA against human ROR1-ECD, human ROR2-ECD and mouse ROR1-ECD (FIG. 12).

mouse ROR1-ECD = target: T5, mouse ROR1-ECD (mouse, UniProt Q9Z139 30-406); test: phage antibody protein ELISA
T5 construct: extracellular domain; also called mROR1
T5 sequence (Q9Z139 30-406): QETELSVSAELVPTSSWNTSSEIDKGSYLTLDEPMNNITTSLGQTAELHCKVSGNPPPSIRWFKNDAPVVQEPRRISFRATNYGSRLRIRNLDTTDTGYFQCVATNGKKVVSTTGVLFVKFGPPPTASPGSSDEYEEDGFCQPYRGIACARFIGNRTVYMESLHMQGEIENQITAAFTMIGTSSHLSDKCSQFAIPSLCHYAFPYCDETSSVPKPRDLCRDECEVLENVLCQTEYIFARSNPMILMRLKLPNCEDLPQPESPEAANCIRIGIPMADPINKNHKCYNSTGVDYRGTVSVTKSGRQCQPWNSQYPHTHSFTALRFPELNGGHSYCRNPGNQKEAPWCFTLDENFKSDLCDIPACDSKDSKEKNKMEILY
Experimental: as §3

T1 sequence (Q01973 30-406): as the sequence (Q01973 30-406, one chain of several) above

Binder | koff [1] [s⁻¹] | kon [1] [M⁻¹ s⁻¹] | Kd [2] [nM] | Kd [3] [nM] | koff [3] [s⁻¹] | kon [3] [M⁻¹ s⁻¹] | IC50 [4] [nM] | binding result (human ROR2-ECD) | binding result (mouse ROR1-ECD)
Antibody 601-4 (antibody, V domains shown) VH: EVQLVQSGPGLVKPSGTLSLTCAVSGGSISSSNWWSWVRQPPGKGLEWIGEIYHSGSTNYNPSLKSRVTISVDKSKNQFSLKLGSVTAADTATYYCARDLWLGEWDLWGQGTLVTVSS VL: QSVLTQPPSASGAPGQRVTISCSGGISNVGTNGVNWYQHLPGTAPKLLVDAMNQRPSGVPDRFSGSRSGTSGSLAITGLRSEDEADYYCATWDDSLSGVLFGGGTKLTVLG | 0.00076 | 3.6e+06 | 0.2 | 0.3 | 0.0016 | 4.6e+06 |  |  | 
P601-14 (scFv, V domains shown) VH: QVQLVQSGAEVKKPGESLKISCKDSGYSFTNYWLGWVRQMPGKGLEWMGIIYPGDSDTRYSPSFRGQVTISADKSISTAYLQWSSLKASDTAMYYCARLNLATHTAFDIWGQGTTVTVSS VL: QSVLTQPASVSGSPGQSITISCTGTSSDVGGYNYVSWYQQHPGKAPKLMIYDVSNRPSGVSNRFSGSKSGNTASLTISGLQAEDEADYYCSSYTSSSTLWVFGGGTKLTVLG |  |  |  |  |  |  | 3.22 | no binding | binds
Antibody 601-147 (antibody, V domains shown) VH: QMQLVQSGAEVKKPGASVKVSCKASGYTFSRYYIHWVRQAPGQGLEWMGLINPGGGSTNYAQKFQGRVTMTRDTSTNTVYLELSSLRSDDTAVYYCARDYGTIDARRFDFWGQGTLVTVSS VL: QSALTQPPSASGTPGQRVTISCSGSSSNIGSNYVYWYQQLPGTAPKLLIYRNNQRPSGVPDRFSGSKSGTSASLAISGLRSEDEADYYCAAWDDSLSGYVFGTGTKVTVL | 0.00063 | 680000 | 0.9 | 2.8 | 0.0017 | 590000 |  |  | 
Antibody 601-50 (antibody, V domains shown) VH: QVQLQQSGAEVKKPGASVKVSCKASGYTFSRYYIHWVRRAPGQGLEWMGLINPGGGSTNYAQKFQGRVTMTRDTSTNTVYLELSSLRSDDTAVYYCARDYGTIDARRFDFWGQGTLVTVSS VL: QSALTQPPSASGTPGQRVTISCPGSSSNIGSNYVYWYQQLPGTAPKLLIYRNNQRPSGVPDRFSGSKSGTSATLGITGLQTGDEADYYCGTWDSSLSAYVFGTGTKVTVL | 0.0011 | 940000 | 1.1 | 1.5 | 0.0016 | 1.1e+06 |  |  | 
Antibody 601-87 (antibody, V domains shown) VH: QVQLQESGPGLVKSSETLSLTCTVSGGSMNNYYWSWIRQPAGKGLEWMGRIYSSGSTNYNPALKSRVTMSVDTSKNQFSLNLSSVTAADTAIYYCARASWSGTYWALFDYWGQGTLVTVSS VL: ETTLTQSPAFMSATPGDKVNISCKASQDIDDDLNWYQQKPGEAPILIIQEATTLVPGIPPRFSGSGFGTDFTLTINSMQSEDVAYYFCLQHDNFPPTFGQGTKVEIK | 0.00058 | 760000 | 0.8 | 2.2 | 0.0013 | 600000 |  |  | 
Antibody 601-65 (antibody, V domains shown) VH: QVQLQQSGPGLVKPSQTLSLTCAISGDSVSSNSATWNWIRQSPSRGLEWLGRTYYRSKWYNDYAVSVKSRIIINPDTSKNQFSLQLNSVTPEDTAVYYCARGVRAFDIWGQGTTVTVSS VL: QSVLTQPPSVSGTPGQRVTIFCSGGSNNIGRSSVYWYRQAAGTAPKLLIYKTDQRPSGVPDRFAASKSGASASLAISGLRSEDEADYHCATWDDSLSAVVFGGGTKLTVL | 0.0072 | 1.1e+06 | 6.4 | 6.6 | 0.011 | 1.7e+06 |  |  | 
P601-1 (scFv, V domains shown) VH: EVQLVESGGGLVKPGGSLRLSCAASGFTFSDYYMSWIRQAPGKGLEWVSYISDSTNTIYYADSVKGRFTVSRDNPKNSLYLQMISLRAEDTAVYYCARAVGAGEGFDHWGQGTLVTVSS VL: not shown |  |  |  |  |  |  | 0.11 | no binding | binds
Antibody 601-9 (antibody, V domains shown) VH: QLQLQESGPGVVKPSGTLSLTCTVSGGSISRSDGYWGWVRQPPGKGLEWIGSIYDTGTTYYSPSLKSRLIISVDTSKNQFSLTLNSVTAADTAVYYCASMGGLRSSSSDAFHTWGPGTMVTVSS VL: QSVLTQPPSVSVAPGETARITCGGTNIGSESVHWYQQRPGQAPVLVVYDDTDRPSGIPERFSGSNSGNTATLTISRVEAGDGADYYCQVWDSVSDRYVFGTGTKVTVL | 0.021 | 1.4e+06 | 15.3 | 27.6 | 0.017 | 630000 |  |  | 
Antibody 601-130 (antibody, V domains shown) VH: EVQLVETGGGLVKPGGSLRLSCEASGFSLSSYSMNWVRQAPGKGLEWVSSISSSSTHIYYADSLKGRFTISRDNAKNSLFLQMDNLRAEDTAVYYCARATIGFDYWGQGTLVTVSS VL: QSVLTQPPSVSGAPGQRVTISCTGSSSNIGAGYDVHWYQQLPGTAPKLLIYGNSNRPSGVPDRFSGSKSGTSASLAITGLQAEDEADYYCQSYDSSLSGYVFGTGTKLTVL | 0.0012 | 520000 | 2.2 | 4.1 | 0.0018 | 450000 |  |  | 
Antibody 601-66 (antibody, V domains shown) VH: QVQLVQSGAEVKEPGASVKVSCKASGYTFRNSGITWVRQAPGQGLEWMGWINPNSGGAMYVDNFQGRATMTRDTSINTAYMELRSLSSDDTAVYYCARGMADLIDVFDIWGQGTLVTVSS VL: TQPALTQPASVSGSPGQSITISCTGTSSDFGDYDYVSWYQQHPGKAPKLMIYDVSDRPSGVSNRFSGSKSGNTASLTISGLQAEDEADYFCSSFTTSSTLVFGGGTKLTVL | 0.0051 | 3.1e+06 | 1.7 | 2.4 | 0.0059 | 2.5e+06 |  |  | 
Antibody 601-70 (antibody, V domains shown) VH: EVQLVQSGAELKKPGSSVRVSCKTSGGSFKTHGISWVRQAPGQGLEWMGWINPNSGGALYVDNFQGRATMTRDTSINTAYMELRSLSSDDTAVYYCARGMADLIDVFDIWGQGTMVTVSS VL: TQPALTQPASVSGSPGQSITISCTGTSSDFGDYDYVSWYQQHPGKAPKLMIYDVSDRPSGVSNRFSGSKSGNTASLTISGLQAEDEADYFCSSFTTSSTLVFGGGTKLTVL | 0.018 | 5.1e+06 | 3.5 | 5.4 | 0.019 | 3.6e+06 |  |  | 
Antibody 601-149 (antibody, V domains shown) VH: EAQLVESGGGLVKPGGSLRLSCAASGFTFSDYYMGWVRQAPGKGLKWLSYISDRAHTIYDTDSVKGRFTISRDDAKSSLYLRMNNLRVEDTAVYYCARAVGAGEGFDYWGQGTLVTVSS VL: DIQLTQSPSSLSASVGDRVTITCQASQDVRNYLNWYQQKPGKAPNLLIYDATNLESGVPSRFSGSGSGTDFTFTISSLQPEDFATYYCQQYDNLPLSFGGGTKVEIK | 0.00023 | 1.9e+06 | 0.1 | 0.4 | 0.00069 | 1.6e+06 |  |  | 
P601-43 (scFv, V domains shown) VH: QVQLQQSGAEVKKPGASVRVSCKASGYSFGNNGITWVRQAPGQGLEWMGWISTYNGNTNYAQKLQGRVTMTTDTSTSTAYMELRSLRSDDTAVYYCARDYYSDSSGYWDDAFDIWGQGTTVTVSS VL: not shown |  |  |  |  |  |  | 0.23 | no binding | 
Antibody 601-37 (antibody, V domains shown) VH: EVQLVQSGAEVKKPGASVKVSCKASGYTFNNYGFSWVRQAPGQGLEWMGWISVYNGNTNYAQKLQGRVTMTTDTSTSTAYMELRSLRSDDTAVYYCARDYYSDSSGYWDDAFDIWGQGTMVTVSS VL: AIRMTQSPSSLSASVGDRVTITCQASQDISNYLNWYQQKPGKAPKLLIYAASSLQSGVPSRFSGSGSGTDFTLTISSLQPEDFATYYCQQSYSTPFTFGPGTKVDIK | 0.0018 | 1e+06 | 1.7 | 3 | 0.0027 | 920000 |  |  | 
Antibody 601-141 (antibody, V domains shown) VH: QVQLQQSGAEVKKPGASVKVSCKASGHTFSNYGISWVRQAPGQGLEWMGWISTYNGNTNYAQKLQGRVTMTTDTSTSTAYMELRSLRSDDTAVYYCARDYYSDSSGYWDDAFDIWGQGTTVTVSS VL: not shown | 0.022 | 1.8e+06 | 11.9 | 20.6 | 0.026 | 1.2e+06 |  |  | 
P601-57 (scFv, V domains shown) VH: EVQLVQSGAEVKKPGSSVKISCKASGGAFTNFGISWVRQAPGQGLEWMGWISTYNSETNYAQKLQGRVTMTTDTSTSTAYMELRSLRSDDTAVYYCARDYYSDSSGYWDDAFDIWGQGTLVTVSS VL: not shown |  |  |  |  |  |  | 4.08 | no binding | 
